“Also recorded” adds a separate entry of the source. Ends that are not written are not given here.
Experiments:
α-thrombin [1] = molecular target: T1, α-thrombin (Homo sapiens, UniProt P00734); assay: amidolytic activity of thrombin against S2238 after modification; type: biochemical; design: purchased Enzyme Research, South Bend, IN; conditions: bFPRck:thrombin molar ratio 10:1, TBS pH 7.4, ten minutes ambient
Method: HCII- or hirudin-related peptides in 50 mM sodium phosphate pH 6.5 were combined with 20-fold molar excess sulfosuccinimidyl-6-(biotinamido) hexanoate (sulfo-NHS-LC-biotin, Pierce) at ambient temperature for 30 minutes. Reactions were quenched with excess Tris-Cl pH 7.4 and sulfo-NHS-LC-biotin removed by desalting or dialysis. Biotinylated FPR chloromethylketone (bFPRck; Haematologic Technologies, Essex Junction, VT) was used to modify α-thrombin at a bFPRck: thrombin molar ratio of 10:1 in Tris-buffered saline (TBS, pH 7.4) for ten minutes at ambient temperature. Excess reagent was removed by overnight dialysis versus TBS.

α-thrombin [2] = molecular target: T1, α-thrombin; assay: competition of dermatan sulfate-catalysed thrombin inhibition by plasma-derived HCII (k2app); type: biochemical; design: purchased Enzyme Research, South Bend, IN; conditions: 250 μM competitor peptide, 1.4 μM dermatan sulfate
Method: (§1) The apparent second-order rate constant (k2app) of α-thrombin inhibition by purified plasma-derived HCII (Affinity Biologicals, Ancaster, ON) was determined under pseudo-first order conditions involving an excess of plasma-derived HCII over α-thrombin using a discontinuous assay as previously described, with or without addition of competitor HCII 1-75, HCII 54-75, or HCII 1-53 at 0.25 mM. Briefly, plasma-derived HCII (140 nM) was incubated with α-thrombin (14 nM) in PPNE buffer (20 mM Na2HPO4, pH 7.4, 100 mM NaCl, 0.1 mM EDTA, 0.1% polyethylene glycol 8000) supplemented with 0.055 mg/mL (2 μM) standard heparin (Hepalean, Organon Teknika Canada, St. Laurent, QC) and 10 μM S2238 (DiaPharma,West Chester OH) or 0.055 mg/mL (1.4 μM) dermatan sulfate (Sigma-Aldrich, St. Louis, MO). Residual protease activity was determined by diluting the reactions 100-fold into 100 μM S2238 and measuring the absorbance at 405 nm for 5 minutes using an EL808 plate reader (BioTek Instruments, Winooski, VT).
(§2) Figure 5 Effects of HCII-derived peptides on the inhibition of thrombin by plasma-derived HCII in the presence of GAGs. […] The competing peptides that were used separately at 250 μM were: HCII 1-75; HCII 54-75; or HCII 1-53. The mean ± the SD of 3 independent experiments is shown.

α-thrombin [3] = molecular target: T1, α-thrombin; assay: competition of heparin-catalysed thrombin inhibition by plasma-derived HCII (k2app); type: biochemical; design: purchased Enzyme Research, South Bend, IN; conditions: 250 μM competitor peptide, 140 nM plasma-derived HCII, 55 μg/mL standard heparin
Method: as §1, §2

human thrombin = assay: thrombin clotting time in plasma; type: biochemical
Method: Thrombin times were determined using Thrombin 10 (freeze-dried human thrombin with calcium [1.5 NIH units/mL] Diagnostica Stago, Asnieres, France) and an STA 4 coagulation analyzer (Diagnostica Stago). Citrated human plasma (25 μL) was combined with 75 μL veronal buffer (7.14 mM sodium acetate trihydrate, 7.4 mM sodium diethyl barbiturate, 131 mM NaCl pH 7.4) containing or lacking HCII- or hirudin-related peptides, and clotting time was determined following the addition of 100 μL Thrombin 10 reagent.
Figure 4 Effects of competitor peptides on thrombin clotting time. […] The mean ± the SD of 3 independent experiments is shown.

thrombin [4] = molecular target: T2, thrombin (Homo sapiens, UniProt P00734); assay: SPR competition of thrombin binding to chip-immobilized HCII 1-75
T2 construct: purchased Enzyme Research, South Bend, IN; host or cells: HCII 1-75 probe made in house in E. coli TOP10
Method: Surface plasmon resonance experiments were carried out using a BIAcore X biosensor instrument (Biacore, Piscataway, NJ) at 25°C. Biotinylated HCII- or hirudin-related peptides were immobilized on streptavidin-coated sensor chips (GE Healthcare) under conditions recommended by the manufacturer. […] A flow rate of 2 μL/minute was employed for immobilization runs, with 0.5 M NaCl employed as a regeneration buffer and HEPES-buffered saline (10 mM HEPES, 150 mM NaCl, 0.005% Tween-20, pH 7.7) otherwise used for binding determinations. Binding of thrombin (0-30 μM) was assessed using 20 μL injection volumes, and flow rates of 20 μL/minute. BIAcore Evaluation 3.2 (BIAcore) software was used to evaluate sensorgrams from each run, using either 1:1 Langmuir binding or steady state analysis. In some experiments various concentrations of HCII- or hirudin-related peptides were combined with 250 nM thrombin or FPR-ck-thrombin immediately prior to being flowed over chip-bound HCII 1-75.
Figure 6 Senorgrams from surface plasmon resonance (SPR) experiments. Biotinylated HCII 1-75 was bound to streptavidin-coated sensor chips and varying concentrations of thrombin were flowed over the chip, generating sensorgrams (e.g. Panel A) of the response in response units (RU) versus the time in seconds. Panel B is a plot of experiment shown in Panel A, combined with two other independent experiments; each point therefore represents the mean mid-plateau response ± the SD of 3 independent experiments. In panels C-F the thrombin concentration was fixed at 250 nM and competitor peptides identified in each panel were combined with thrombin and flowed over the chip. The concentration of competitor peptides in each experiment is shown to the left of the sensorgram.

thrombin [5] = conditions: ref [21], cited from earlier work
Source text: Although the differences between the encounter complex and the native structure support the allosteric model of activation, they provide no information on the position or role of the first 54 residues of HCII. […] We replicated this experiment and extended it to include all four of the exosite 1 ligand peptides employed in this study, as shown in Figure 4. We used the measurement previously employed to judge the potency of the peptides, the concentration required to double the thrombin clotting time. […] While there are no similar values in the literature available for HCII 1-75 for comparison to our results, ...

HCII = conditions: ref [47]; read-out: KD, HCII-dermatan sulfate interaction; cited from earlier work
Source text: (§3) The relative contributions to HCII function of a template mechanism, in which thrombin and HCII become co-localized due to their binding to the same glycosaminoglycan chain, or a conformational change mechanism, in which GAG binding to HCII releases the N-terminal extension of HCII for exosite 1 binding, remain somewhat controversial, as does the degree of cross-talk between thrombin’s exosites and active site.

thrombin [6] = molecular target: T2, thrombin; conditions: ref [47]; read-out: KD, thrombin binding to dermatan sulfate; cited from earlier work
Source text: as §3

α-thrombin [7] = molecular target: T1, α-thrombin; assay: competition of binding of α-thrombin to HCII 1-75 immobilized on microtiter plate wells; design: purchased Enzyme Research, South Bend, IN; host or cells: HCII 1-75 probe made in house in E. coli TOP10; conditions: 5 nM thrombin, 37°C 30 min, anti-thrombin antibody, OD 490 nm; mean of 3 determinations ± SD
Method: Purified HCII 1-75 was immobilized onto an Immulon 4 HBX 96 well microtiter plate (Thermo, Milford MA), using a 1 μM solution of HCII 1-75 in PBS at 0.1 mL per well overnight at 4°C. The HCII solution was then removed and the wells blocked with 5% BSA (w/vol) in PBS-T for one hour at ambient temperature. […] Wells were washed and reacted with horseradish peroxidase-conjugated sheep anti-human thrombin antibody (Affinity Biologicals, Ancaster, ON), diluted 1:10,000 in blocking buffer, for one hour at ambient temperature. Following washes with PBS-T, colour was developed using a freshly made solution of 5 mg o-phenylenediamine (Pierce) in 12 mL of 25 mM citric acid, 97 mM Na2HPO4 pH5.0 supplemented with 0.03% (v/vol) hydrogen peroxide for ten minutes prior to stopping the reaction with sulfuric acid. The optical density at 490 nm was then read on an EL808 Plate reader (Biotek Instruments, Winooski, VT). […] The same program was used to calculate IC50s in competitive binding experiments in which HCII-derived or hirudin-derived peptides were used to compete the binding of thrombin to immobilized HCII 1-75.

## Biotinylated FPR chloromethylketone [bFPRck]
α-thrombin [1]
  amidolytic activity of modified thrombin against S2238: no detectable amidolytic activity against S2238

## HCII 1-53: Synthetic peptide containing the first 53 residues of human HCII and a nonapeptide N-terminal tag ({Met-Gly-Ser-H2N-H2N-H2N-H2N-H2N-H2N}-GSKGPLDQLEKGGETAQSADPQWEQLNNKNLSMPLLPADFHKENTVTNDWIPE; UniProt P05546 20-72, looked up, fragment)
α-thrombin [2]
  effect on rate of thrombin inhibition by plasma-derived HCII, dermatan sulfate: no reduction in the apparent rate of inhibition
α-thrombin [3]
  effect on rate of thrombin inhibition by plasma-derived HCII, heparin: no effect; also recorded: no detectable ability to bind thrombin, to delay thrombin-mediated coagulation, or to compete for the N-terminal HCII 1-75 extension in native HCII
Human thrombin; plasma clotting assay
  effect on thrombin-mediated plasma clotting: no effect; also recorded: no detectable ability to bind thrombin, to delay thrombin-mediated coagulation
Thrombin [4]; 250 nM thrombin, chip-immobilized HCII 1-75, SPR 25°C, HBS pH 7.7, Ki from IC50 using KD 340 nM, mean of 3 determinations ± SD
  Ki, inhibition of thrombin binding to HCII 1-75 (SPR): No inhibition
Thrombin [4]; summary statement, discussion/conclusions
  thrombin binding: no detectable ability to bind thrombin; also recorded: did not bind to thrombin
Thrombin [4]; up to 250 μM competitor, 250 nM thrombin, SPR
  effect on thrombin binding to HCII 1-75: no effect on thrombin binding to HCII 1-75

## HCII 54-75 peptide: synthetic peptide to HCII residues 54-75 of ref [21] (GEEDDDYLDLEKIFSEDDDYID; not fully specified (N-terminus); UniProt P05546 73-94, looked up, fragment)
Thrombin [5]; recalcified human plasma
  fold less potent than sulfo-Hir 54-65 as inhibitor of thrombin-mediated clotting: approximately 30 fold
Thrombin [5]
  inhibition of thrombin activities: inhibition of thrombin-mediated fibrinogen cleavage and clot formation

## dermatan sulfate
HCII
  Kd: 236000 to 290000 nM
Thrombin [6]
  Kd: 2000 to 6000 nM

## sulfo-Hir 54-65: Synthetic peptide containing the C-terminal 12 residues of hirudin, with Tyr63 sulfated [reference compound]
α-thrombin [7]
  IC50: 140 ± 40 nM
Human thrombin; diluted citrated human plasma, Thrombin 10 reagent, mean of 3 determinations ± SD
  concentration required to double the thrombin clotting time: 0.150 ± 0.02 µM
Thrombin [4]; 250 nM thrombin, chip-immobilized HCII 1-75, SPR 25°C, HBS pH 7.7, Ki from IC50 using KD 340 nM, mean of 3 determinations ± SD, read-out: Ki, inhibition of thrombin binding to HCII 1-75 (SPR)
  Ki: 54 ± 90 nM
Thrombin [4]; SPR competition
  fold more effective competitor of thrombin binding than HCII 1-75: 48 fold
